Results published in PMC8725159, “CryoEM analysis of small plant biocatalysts at sub-2 Å resolution” (Acta Crystallographica. Section D, Structural Biology, 2022).
Values joined by “and” are separate entries in the source; they are usually repeats but may differ in a detail not shown here. Identical values can stand only once.

Experiments:
[1] = molecular target: borneol dehydrogenase 1 from Salvia rosmarinus (SrBDH1) (Salvia rosmarinus); assay: SEC-MALS; Superdex 200 Increase 10/300 column, 18°C, miniDAWN TREOS detector with refractive-index detector
[2] = molecular target: borneol dehydrogenase 1 from Salvia rosmarinus (SrBDH1) (Salvia rosmarinus); assay: cryo-EM structure; single-particle cryoEM, 1 mg/ml on UltrAuFoil R1.2/1.3 grids, Titan Krios 300 kV, Falcon 3EC, D2 symmetry imposed
[3] = molecular target: the molecule itself; assay: SEC-MALS; Superdex 200 Increase 10/300 column, 18°C, miniDAWN TREOS detector with refractive-index detector

Molecule	stoichiometry N [1]	stoichiometry N [2]	stoichiometry N [3]
borneol dehydrogenase 1 from Salvia rosmarinus (SrBDH1) (enzyme)	4	4	
borneol dehydrogenase 2 from Salvia officinalis (SoBDH2) (enzyme, borneol-type dehydrogenase SoBDH2 from Salvia officinalis, GenBank MT525099; synthetic gene codon-optimized for E. coli; theoretical molecular mass with the His6 tag 32.2 kDa; Homotetramer with D2 symmetry in cryoEM; also called Salvia officinialis borneol dehydrogenase 2; source: E. coli BL21-RIL, purified (Ni-NTA, SEC); not shown: His6, N-terminal, kept) MATGAANVESPQSLPLRLLGRVALVTGGSSGIGESIVLLFRKHGAKVCIADVQDNQGQRLCETLGGSSDIAFCHCDVTIEDDVKRAVDFTVDKFGTLDIMVNNAGVSGPPCPDIRDFELSAFDRVFDINVRGVFIGMKHAARIMIPAKKGSIISISSVASTMGGLGPHAYTGSKHAVLGLTKNVAAELGKHGIRVNCVSPYAVATSLALAHLPEAERTEDTWDDFRRFVADNANLQGVELTMEDVANAVVFLASDEARYVSGMNLMVDGGFTSTNHALQVFRP			8 and 4
